What was measured:
L-selectin (LS-Rg) [1] = target: T1, L-selectin (LS-Rg) (Homo sapiens, UniProt P14151 P14151:39-332); assay: filter; room temp; 0.65 nM at 37 C; details: tags: human IgG2 Fc fusion (provided by A. Varki); label: 32P; hairpin
T1 chain: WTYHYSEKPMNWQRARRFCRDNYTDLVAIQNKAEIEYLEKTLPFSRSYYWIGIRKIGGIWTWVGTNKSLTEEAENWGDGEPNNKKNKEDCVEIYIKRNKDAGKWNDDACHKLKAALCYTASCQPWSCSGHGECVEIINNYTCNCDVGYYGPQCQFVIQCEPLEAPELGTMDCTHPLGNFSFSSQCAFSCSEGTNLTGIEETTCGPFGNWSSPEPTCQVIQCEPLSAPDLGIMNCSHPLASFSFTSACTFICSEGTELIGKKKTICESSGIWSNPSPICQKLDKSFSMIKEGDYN

L-selectin (LS-Rg) [2] = target: T1, L-selectin (LS-Rg); assay: filter; room temp; 8.4 nM at 37 C; details: tags: human IgG2 Fc fusion (provided by A. Varki); label: 32P
P-selectin (PS-Rg) = target: T2, P-selectin (PS-Rg) (Homo sapiens, UniProt P16109 P16109:42-321); assay: filter; room temp, Ca/Mg buffer; details: tags: lectin, EGF and first two CRD domains fused to human IgG1 Fc (provided by A. Varki); chain copies: 2 (dimeric Fc chimera, inferred)
T2 chain: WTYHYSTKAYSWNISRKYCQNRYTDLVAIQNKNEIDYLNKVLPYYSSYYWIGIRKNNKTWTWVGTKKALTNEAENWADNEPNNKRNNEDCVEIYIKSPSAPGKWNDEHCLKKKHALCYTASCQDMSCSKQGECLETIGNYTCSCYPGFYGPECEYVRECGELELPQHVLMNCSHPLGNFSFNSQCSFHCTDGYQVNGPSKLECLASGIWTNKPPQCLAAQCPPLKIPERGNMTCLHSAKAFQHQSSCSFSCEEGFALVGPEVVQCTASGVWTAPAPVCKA
Method: (§1) RNA was reverse transcribed into cDNA by AMV reverse transcriptase at 48° C. for 60 min in 50 mM Tris-Cl pH (8.3), 60 mM NaCl, 6 mM Mg(OAc)_2, 10 mM DTT, 100 pmol DNA primer, 0.4 mM each of dNTPs, and 0.4 unit/µl AMV RT. […] C) Nitrocellulose Filter Partitioning As described in SELEX Patent Applications, the nitrocellulose filter partitioning method was used to determine the affinity of RNA ligands for WGA and for other proteins. Filter discs (nitrocellulose/cellulose acetate mixed matrix, 0.45 µm pore size, Millipore; or pure nitrocellulose, 0.45 µm pore size, Bio-Rad) were placed on a vacuum manifold and washed with 4 ml of HBSS buffer under vacuum. Reaction mixtures, containing ^32P labeled RNA pools and unlabeled WGA, were incubated in HBSS for 10 min at room temperature, filtered, and then immediately washed with 4 ml HBSS. The filters were air-dried and counted in a Beckman LS6500 liquid scintillation counter without fluor. WGA is a homodimer, molecular weight 43.2 kD, with 4 GlcNAc binding sites per dimer. For affinity calculations, we assume one RNA ligand binding site per monomer (two per dimer). The monomer concentration is defined as 2 times the dimer concentration. The equilibrium dissociation constant, K_d, for an RNA pool or specific ligand that binds monophasically is given by the equation $$K_d=[P_f][R_f]/[RP]$$
(§2) The affinity of representative cloned ligands for LS-Rg, ES-Rg, PS-Rg, CD22β-Rg and WGA was determined by nitrocellulose partitioning and the results shown in Table XIV. The ligands are highly specific for L-selectin.
(§3) *Kds were determined at room temperature.

E-selectin (ES-Rg) [3] = target: T3, E-selectin (ES-Rg) (Homo sapiens, UniProt P16581 P16581:22-556); assay: filter; room temp, Ca/Mg buffer; details: tags: extracellular domain fused to human IgG1 Fc (provided by A. Varki); chain copies: 2 (dimeric Fc chimera, inferred)
T3 chain: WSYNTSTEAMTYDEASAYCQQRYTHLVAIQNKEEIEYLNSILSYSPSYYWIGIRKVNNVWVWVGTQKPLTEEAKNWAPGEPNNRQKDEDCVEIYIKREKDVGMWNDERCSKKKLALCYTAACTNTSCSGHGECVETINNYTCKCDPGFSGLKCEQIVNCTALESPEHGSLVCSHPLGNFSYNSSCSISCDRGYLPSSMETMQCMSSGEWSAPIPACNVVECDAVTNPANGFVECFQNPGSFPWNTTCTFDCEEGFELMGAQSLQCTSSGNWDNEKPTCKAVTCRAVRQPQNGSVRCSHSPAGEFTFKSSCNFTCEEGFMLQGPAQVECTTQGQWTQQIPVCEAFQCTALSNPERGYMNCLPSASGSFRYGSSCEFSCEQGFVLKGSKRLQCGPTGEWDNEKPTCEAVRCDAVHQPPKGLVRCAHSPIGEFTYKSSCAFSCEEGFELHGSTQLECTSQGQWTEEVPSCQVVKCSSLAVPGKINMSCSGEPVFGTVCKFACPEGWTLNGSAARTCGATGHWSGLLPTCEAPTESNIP
Method: as §1, §2, §3

L-selectin (LS-Rg) [4] = target: T1, L-selectin (LS-Rg); assay: filter; room temp; 11.8 nM at 37 C; details: tags: human IgG2 Fc fusion (provided by A. Varki); label: 32P; hairpin
[5] = target: T4, wheat germ agglutinin (WGA) (Triticum vulgare, UniProt P10968 P10968:27-197); assay: filter; HBSS, room temp; printed as 11.3, SEQ 54; details: tags: free lectin, E Y Laboratories; label: 32P
T4 sequence: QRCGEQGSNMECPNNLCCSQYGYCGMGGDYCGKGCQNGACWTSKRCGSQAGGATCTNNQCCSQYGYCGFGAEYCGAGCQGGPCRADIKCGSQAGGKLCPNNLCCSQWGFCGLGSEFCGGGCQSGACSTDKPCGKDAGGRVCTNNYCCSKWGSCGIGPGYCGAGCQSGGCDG
Method: (§4) The specifically eluted fraction was processed for use in the following round. Fractions eluted from immobilized WGA were heated at 90° C. for 5 minutes in 1% SDS, 2% β-mercaptoethanol and extracted with phenol/chloroform. RNA was reverse transcribed into cDNA by AMV reverse transcriptase at 48° C. for 60 min in 50 mM Tris-Cl pH (8.3), 60 mM NaCl, 6 mM Mg(OAc)_2, 10 mM DTT, 100 pmol DNA primer, 0.4 mM each of dNTPs, and 0.4 unit/µl AMV RT. […] C) Nitrocellulose Filter Partitioning As described in SELEX Patent Applications, the nitrocellulose filter partitioning method was used to determine the affinity of RNA ligands for WGA and for other proteins. Filter discs (nitrocellulose/cellulose acetate mixed matrix, 0.45 µm pore size, Millipore; or pure nitrocellulose, 0.45 µm pore size, Bio-Rad) were placed on a vacuum manifold and washed with 4 ml of HBSS buffer under vacuum. Reaction mixtures, containing ^32P labeled RNA pools and unlabeled WGA, were incubated in HBSS for 10 min at room temperature, filtered, and then immediately washed with 4 ml HBSS. The filters were air-dried and counted in a Beckman LS6500 liquid scintillation counter without fluor. […]
The dissociation constants for representative members of families 1–9 and orphan ligands were determined by nitrocellulose filter binding experiments and are listed in Table III. […]

[6] = target: T5, Ulex europaeus lectin UEA-II (Ulex europaeus, UniProt P22973 P22973:1-249); assay: filter; HBSS, room temp; details: tags: E Y Laboratories; label: 32P; hairpin
T5 sequence: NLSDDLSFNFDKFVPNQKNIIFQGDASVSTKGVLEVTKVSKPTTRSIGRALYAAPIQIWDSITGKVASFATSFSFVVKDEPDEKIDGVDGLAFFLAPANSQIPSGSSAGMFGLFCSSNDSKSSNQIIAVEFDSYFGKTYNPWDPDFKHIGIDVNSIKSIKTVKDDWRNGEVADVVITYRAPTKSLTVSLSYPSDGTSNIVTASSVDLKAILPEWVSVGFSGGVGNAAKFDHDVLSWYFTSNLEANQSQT
Method: as §4, with “fluor. WGA is a homodimer, molecular weight 43.2 kD, with 4 GlcNAc binding sites per dimer. For affinity calculations, we assume one RNA ligand binding site per monomer (two per dimer).” for “fluor.”

[7] = target: T4, wheat germ agglutinin (WGA); assay: filter; HBSS, room temp; 11.4 nM in Table IV; details: tags: free lectin, E Y Laboratories; label: 32P; hairpin
Method: as §4, with “fluor. WGA is a homodimer, molecular weight 43.2 kD, with 4 GlcNAc binding sites per dimer. For affinity calculations, we assume one RNA ligand binding site per monomer (two per dimer).” for “fluor.”

L-selectin (LS-Rg) [8] = target: T1, L-selectin (LS-Rg); assay: filter; room temp; 8.8 nM at 37 C; details: tags: human IgG2 Fc fusion (provided by A. Varki); label: 32P; hairpin
L-selectin (LS-Rg) [9] = target: T1, L-selectin (LS-Rg); assay: filter; room temp; 6.0 nM at 37 C; details: tags: human IgG2 Fc fusion (provided by A. Varki); label: 32P
L-selectin (LS-Rg) [10] = target: T1, L-selectin (LS-Rg); assay: filter; 4 C, HSMC (Ca/Mg); biphasic, fraction 0.68, low affinity Kd 60 nM; 1.0 nM at room temp; details: tags: human IgG2 Fc fusion (provided by A. Varki); label: 32P; pseudoknot
Method: (§5) As described in SELEX Patent Applications, the nitrocellulose filter partitioning method was used to determine the affinity of RNA ligands for LS-Rg and for other proteins. Filter discs (nitrocellulose/cellulose acetate mixed matrix, 0.45 um pore size, Millipore) were placed on a vacuum manifold and washed with 2 ml of HSMC buffer under vacuum. Reaction mixtures, containing ^32P labeled RNA pools and unlabeled LS-Rg, were incubated in HSMC for 10–20 min at 4° C., room temperature or 37° C., filtered, and then immediately washed with 4 ml HSMC at the same temperature. The filters were air-dried and counted in a Beckman LS6500 liquid scintillation counter without fluor.
The dissociation constants for representative ligands from rounds 13 and 14, including all orphans, were determined by nitrocellulose filter binding experiments and are listed in Table IX. These calculations assume two RNA ligand binding sites per chimera. The affinity of random RNA cannot be reliably determined but is estimated to be approximately 10 µM.

E-selectin (ES-Rg) [11] = target: T3, E-selectin (ES-Rg); assay: filter; 4 C, HSMC; details: tags: human IgG1 Fc fusion (provided by A. Varki); chain copies: 2; label: 32P; pseudoknot
Method: as §5
The affinity of L-selectin ligands to ES-Rg, PS-Rg and CD22β-Rg were determined by nitrocellulose partitioning. […] In general, a ligand's affinity for ES-Rg is 10^3-fold lower and that for PS-Rg is about 10^4-fold less than for LS-Rg. […] The specificity of oligonucleotide ligand binding contrasts sharply with the binding of cognate carbohydrates by the selectins and confirms the assertion that SELEX ligands will have greater specificity than carbohydrate ligands.
*Dissociation constants were determined at 4° C. in HSMC buffer.

L-selectin (LS-Rg) [12] = target: T1, L-selectin (LS-Rg); assay: filter; room temp; 2.1 nM at 37 C; details: tags: human IgG2 Fc fusion (provided by A. Varki); label: 32P

B1: 137 (ssDNA)
DNA: CTACCTACGATCTGACTAGCTACCCCTTGGGCCTCATAGACAAGGTCTTAAACGTTAGCGCTTACTCTCATGTAGTTCC
Kd (L-selectin (LS-Rg) [1]): 0.52 nM

B2: 214 (ssDNA)
DNA: CTACCTACGATCTGACTAGCTGATGCGACTTTAGTCGAACGTTACTGGGGCTCAGAGGACAGCTTACTCTCATGTAGTTCC
Kd (L-selectin (LS-Rg) [2]): 0.66 nM

B3: 111 (ssDNA)
DNA: CTACCTACGATCTGACTAGCTACACAAGGTGCTAAACGTAGAGCCAGATCGGATCTGAGCGCTTACTCTCATGTAGTTCC
Kd (P-selectin (PS-Rg)): 840 nM
Kd (E-selectin (ES-Rg) [3]): 1200 nM
Kd (L-selectin (LS-Rg) [4]): 0.33 nM

B4: 11.30 (ssRNA)
RNA: GGGAAAAGCGAAUCAUACACAAGACGGUUGCUGAACAGAACGUGAGUCUUGGUGAGUCGCACAGAUUGUCCUGCUCCGCCAGAGACCAACCGAGAA
modifications: 2'-NH2 all C and U
Kd [5]: 56 nM

B5: 6.8 (ssRNA)
RNA: GGGAAAAGCGAAUCAUACACAAGAAAGGGAUGGGAUUGGGACGAGCGGCCAAGACUCGGCGGGAACGAAGGGUCCGCUCCGCCAGAGACCAACCGAGAA
modifications: 2'-NH2 all C and U
Kd [6]: 4400 nM
Kd [7]: 11 nM

B6: 145 (ssDNA)
DNA: CTACCTACGATCTGACTAGCCCCCGAAGAACATTTTACAAGGTGCTAAACGTAAAATCAGGCTTACTCTCATGTAGTTCC
Kd (L-selectin (LS-Rg) [8]): 0.92 nM

B7: 206 (ssDNA)
DNA: CTACCTACGATCTGACTAGCAGCGTTGTACGGGGTTACACACAACGATTTAGATGCTCTGCTTACTCTCATGTAGTTCC
Kd (P-selectin (PS-Rg)): 600 nM
Kd (E-selectin (ES-Rg) [3]): 100 nM
Kd (L-selectin (LS-Rg) [9]): 0.33 nM

B8: F14.20 (ssRNA)
RNA: GGGAGGACGAUGCGGUAACAACAAUCAAGGCGGGUUCACCGCCCCAGUAUGAGUGCAGACGACUCGCCCGA
modifications: 2'-NH2 all C and U
Kd (L-selectin (LS-Rg) [10]): 0.058 nM
Kd (E-selectin (ES-Rg) [11]): 70 nM

B9: 122 (ssDNA)
DNA: CTACCTACGATCTGACTAGCGCAACGTGGCCCCGTTTAGCTCATTTGACCGTTCCATCCGGCTTACTCTCATGTAGTTCC
Kd (P-selectin (PS-Rg)): 420 nM
Kd (E-selectin (ES-Rg) [3]): 400 nM
Kd (L-selectin (LS-Rg) [12]): 1.8 nM
